B1: lactoferrin (protein, UniProt P02788 20-710, looked up)
Lactotransferrin: GRRRSVQWCAVSQPEATKCFQWQRNMRKVRGPPVSCIKRDSPIQCIQAIAENRADAVTLDGGFIYEAGLAPYKLRPVAAEVYGTERQPRTHYYAVAVVKKGGSFQLNELQGLKSCHTGLRRTAGWNVPIGTLRPFLNWTGPPEPIEAAVARFFSASCVPGADKGQFPNLCRLCAGTGENKCAFSSQEPYFSYSGAFKCLRDGAGDVAFIRESTVFEDLSDEAERDEYELLCPDNTRKPVDKFKDCHLARVPSHAVVARSVNGKEDAIWNLLRQAQEKFGKDKSPKFQLFGSPSGQKDLLFKDSAIGFSRVPPRIDSGLYLGSGYFTAIQNLRKSEEEVAARRARVVWCAVGEQELRKCNQWSGLSEGSVTCSSASTTEDCIALVLKGEADAMSLDGGYVYTAGKCGLVPVLAENYKSQQSSDPDPNCVDRPVEGYLAVAVVRRSDTSLTWNSVKGKKSCHTAVDRTAGWNIPMGLLFNQTGSCKFDEYFSQSCAPGSDPRSNLCALCIGDEQGENKCVPNSNERYYGYTGAFRCLAENAGDVAFVKDVTVLQNTDGNNNEAWAKDLKLADFALLCLDGKRKPVTEARSCHLAMAPNHAVVSRMDKVERLKQVLLHQQAKFGRNGSDCPDKFCLFQSETKNLLFNDNTECLARLHGKTTYEKYLGPQYVAGITNLKKCSTSPLLEACEFLRK
B2: alpha-2-macroglobulin (protein, UniProt P01023 24-1474, looked up)
Alpha-2-macroglobulin: SVSGKPQYMVLVPSLLHTETTEKGCVLLSYLNETVTVSASLESVRGNRSLFTDLEAENDVLHCVAFAVPKSSSNEEVMFLTVQVKGPTQEFKKRTTVMVKNEDSLVFVQTDKSIYKPGQTVKFRVVSMDENFHPLNELIPLVYIQDPKGNRIAQWQSFQLEGGLKQFSFPLSSEPFQGSYKVVVQKKSGGRTEHPFTVEEFVLPKFEVQVTVPKIITILEEEMNVSVCGLYTYGKPVPGHVTVSICRKYSDASDCHGEDSQAFCEKFSGQLNSHGCFYQQVKTKVFQLKRKEYEMKLHTEAQIQEEGTVVELTGRQSSEITRTITKLSFVKVDSHFRQGIPFFGQVRLVDGKGVPIPNKVIFIRGNEANYYSNATTDEHGLVQFSINTTNVMGTSLTVRVNYKDRSPCYGYQWVSEEHEEAHHTAYLVFSPSKSFVHLEPMSHELPCGHTQTVQAHYILNGGTLLGLKKLSFYYLIMAKGGIVRTGTHGLLVKQEDMKGHFSISIPVKSDIAPVARLLIYAVLPTGDVIGDSAKYDVENCLANKVDLSFSPSQSLPASHAHLRVTAAPQSVCALRAVDQSVLLMKPDAELSASSVYNLLPEKDLTGFPGPLNDQDNEDCINRHNVYINGITYTPVSSTNEKDMYSFLEDMGLKAFTNSKIRKPKMCPQLQQYEMHGPEGLRVGFYESDVMGRGHARLVHVEEPHTETVRKYFPETWIWDLVVVNSAGVAEVGVTVPDTITEWKAGAFCLSEDAGLGISSTASLRAFQPFFVELTMPYSVIRGEAFTLKATVLNYLPKCIRVSVQLEASPAFLAVPVEKEQAPHCICANGRQTVSWAVTPKSLGNVNFTVSAEALESQELCGTEVPSVPEHGRKDTVIKPLLVEPEGLEKETTFNSLLCPSGGEVSEELSLKLPPNVVEESARASVSVLGDILGSAMQNTQNLLQMPYGCGEQNMVLFAPNIYVLDYLNETQQLTPEIKSKAIGYLNTGYQRQLNYKHYDGSYSTFGERYGRNQGNTWLTAFVLKTFAQARAYIFIDEAHITQALIWLSQRQKDNGCFRSSGSLLNNAIKGGVEDEVTLSAYITIALLEIPLTVTHPVVRNALFCLESAWKTAQEGDHGSHVYTKALLAYAFALAGNQDKRKEVLKSLNEEAVKKDNSVHWERPQKPKAPVGHFYEPQAPSAEVEMTSYVLLAYLTAQPAPTSEDLTSATNIVKWITKQQNAQGGFSSTQDTVVALHALSKYGAATFTRTGKAAQVTIQSSGTFSSKFQVDNNNRLLLQQVSLPELPGEYSMKVTGEGCVYLQTSLKYNILPEKEEFPFALGVQTLPQTCDEPKAHTSFQISLSVSYTGSRSASNMAIVDVKMVSGFIPLKPTVKMLERSNHVSRTEVSSNHVLIYLDKVSNQTLSLFFTVLQDVPVRDLKPAIVKVYDYYETDEFAIAEYNAPCSKDLGNA

Assays:
IFNAR1 [1] = assay: IFNAR1 protein level, HepAD38 cells, immunoblot; assay type: cell-based; details: siRNA or overexpression 48 h; LF 400 nM 24 h
IFNAR1 [2] = assay: IFNAR1 protein level, immunoblot / immunofluorescence, RD cells; assay type: cell-based; details: EV71 or HSV-1 MOI 10; α2M 20 nM, LF 400 nM
HBV = HBV level in HepAD38 cells, immunoblot; assay type: cell-based; details: α2M 20 nM, 24 h
EV71 = EV71 infection of RD cells (viral RNA, titer, viral protein, CPE); details: α2M 20 nM, added 3 h post infection MOI 10, 6 h
IFNAR1 [3] = assay: IFNAR1 protein level, immunoblot, HEK-293T cells; assay type: cell-based, human; details: HEK-293T, rLRPAP1 200 nM, α2M 20 nM, 1 h
HSV-1 = HSV-1 infection of RD cells (viral DNA, TCID50, viral protein, CPE); details: α2M 20 nM, added 3 h post infection MOI 10, 21 h
DNA and RNA viruses = assay: Antiviral effect against DNA and RNA viruses (summary); assay type: cell-based; details: dosages within the biosafety range (<1.5 mg/100 ml)
Method: Fig. 6 Inhibition of extracellular LRPAP1 reinforces the host cell’s innate immunity against multiple viruses’ infection. a–c RD cells were transfected with scramble siRNA or siLRPAP1 for 24 h. Then the cells were infected with HCoV-OC43 at an MOI of 1 for 72 h or HSV-1 at the indicated MOI for 24 h. Viral RNA level of HCoV-OC43 was analysed by RT-qPCR (a). Viral titer of HCoV-OC43 was measured by TCID50 assay (b). The relative viral DNA level of HSV-1 was analysed by RT-qPCR (c). d Immunoblots of lysates in HepAD38 cells transfected with scramble siRNA or siLRPAP1 for 48 h. e RD cells were transfected with scramble siRNA or siLRPAP1-1/-2 (si-1, si-2) for 24 h. Then the cells were infected with ZIKV at an MOI of 1 for 24 h. Viral RNA level of ZIKV was analysed by RT-qPCR. f, g The inhibitory effect of anti-LRPAP1 for HSV-1 infection. […] Densitometric analysis of VP1 levels in Fig. 6(i) was quantified and normalized with GAPDH using ImageJ (j). Densitometric analysis of HSV Envelope levels in Fig. 6(k) was quantified and normalized with GAPDH using ImageJ (l). m The schematic diagram of virus circumventing type I IFN signaling through LRPAP1.
a, The effect of siLRPAP1 on the infection of HCoV-OC43. […] Viral RNA level of HCoV-OC43 was analysed by RT-qPCR. b, RD cells were transfected with scramble siRNA or siLRPAP1 for 24 h, and cells were then inoculated with HCoV-OC43 at an MOI of 1 for 72 h. […]

HCoV-OC43 = HCoV-OC43 infection of RD cells (viral RNA, TCID50, CPE); details: α2M 20 nM pre-treatment 1 h, MOI 1, 72 h

Molecule	IFNAR1 expression in HepAD38 cells (IFNAR1 [1])	IFNAR1 level under viral infections (IFNAR1 [2])	HBV propagation (HBc) (HBV)	EV71 propagation (VP1) (EV71)	IFNAR1 level in cells treated with rLRPAP1 (IFNAR1 [3])	HSV-1 propagation (Envelope) (HSV-1)	antiviral effect (DNA and RNA viruses)	HCoV-OC43 propagation (HCoV-OC43)
B1	but not LF	but not LF						
B2		markedly upregulated IFNAR1	significantly inhibited both DNA and RNA virus propagation	significantly inhibited both DNA and RNA virus propagation	markedly upregulated IFNAR1	significantly inhibited both DNA and RNA virus propagation	promising antiviral effects	significantly inhibited both DNA and RNA virus propagation

Reference: paper PMC10518340, “Secreted LRPAP1 binds and triggers IFNAR1 degradation to facilitate virus evasion from cellular innate immunity” (Signal Transduction and Targeted Therapy, 2023)
